One assay addresses human properdin (human, UniProt P27918 28-469). The assay is described as follows: cell-based or functional assay.
Assay [1] addresses T1, human properdin mutant TSR0-4+½ TSR5 (human, UniProt P27918 28-345).
T1 construct: Expressed in CHO cells, tested as lysate; expression confirmed by Western blot
Description: sandwich ELISA with CHO cell lysates (FIG. 7). The procedure: (§1) (see FIG. 6). ELISA plates were coated with 50 μl of 2 μg/ml of the concerned mAb overnight at 4° C. The plates were washed 3× with PBS-T and then 25 μg (in 50 μl PBS containing 1% BSA) CHO cell lysate proteins were added to the wells and the plates were incubated for 1 hour at room temperature. The plates were washed 3× with PBS-T and then captured protein was detected by biotinylated goat anti-human properdin antibody and HRP-avidin system.
Three human properdin mutants comprising TSR0-4+¼ TSR5, TSR0-4+½ TSR5 or TSR0-4+¾ TSR5 were generated by conventional PCR. They were cloned into pCAGGS and expressed in CHO cells as described in Example 5. Protein expression was confirmed by Western analysis using goat anti-human properdin antibody. The blot was stripped and reprobed with a mouse anti-His tag antibody (Qiagen) to confirm that the C-terminal His Tag is present (no C-terminal proteolysis).

The target of assay [2] is T2, human properdin deletion mutant dTSR5+6 (human, UniProt P27918 28-313).
T2 construct: Human properdin with TSR5 and TSR6 deleted; CHO cell lysate; also called TSR0-4; TSR5+6 deletion mutant
T2 sequence (P27918 other isoform, or with tags, fused parts or gaps mutant limits assumed): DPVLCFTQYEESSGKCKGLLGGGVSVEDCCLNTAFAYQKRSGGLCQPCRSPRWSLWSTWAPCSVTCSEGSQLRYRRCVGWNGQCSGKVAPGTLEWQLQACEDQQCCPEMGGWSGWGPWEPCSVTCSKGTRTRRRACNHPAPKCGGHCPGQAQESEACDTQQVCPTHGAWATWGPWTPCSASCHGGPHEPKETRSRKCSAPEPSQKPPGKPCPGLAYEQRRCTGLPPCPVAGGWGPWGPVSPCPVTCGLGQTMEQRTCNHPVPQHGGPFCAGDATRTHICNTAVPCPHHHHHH
Description: ELISA with CHO cell lysates of properdin deletion mutants (FIG. 6). The method, then: (§2) However, because dTSR5 has undergone proteolytic degradation leading to possible TSR6 removal (FIG. 5), it is likely that the epitope for mAb 25 is located in TSR6. HuP refers to full length human properdin transfection which is used as a positive control. Con refers to untransfected CHO cell lysate which is used as a negative control for lack of binding. All mutant proteins contained a 6×His tag at the C-terminus.
as §1

The target of assay [3] is T3, full-length human properdin with the double mutations C62A and C78A (TSR6) (human, UniProt P27918 28-469).
T3 construct: Whether this mutant carries a 6×His tag is not clear; Homogenate of transfected CHO cells; also called C62A and C78A double mutant
T3 sequence (P27918 28-469 C439A/C455A limits assumed): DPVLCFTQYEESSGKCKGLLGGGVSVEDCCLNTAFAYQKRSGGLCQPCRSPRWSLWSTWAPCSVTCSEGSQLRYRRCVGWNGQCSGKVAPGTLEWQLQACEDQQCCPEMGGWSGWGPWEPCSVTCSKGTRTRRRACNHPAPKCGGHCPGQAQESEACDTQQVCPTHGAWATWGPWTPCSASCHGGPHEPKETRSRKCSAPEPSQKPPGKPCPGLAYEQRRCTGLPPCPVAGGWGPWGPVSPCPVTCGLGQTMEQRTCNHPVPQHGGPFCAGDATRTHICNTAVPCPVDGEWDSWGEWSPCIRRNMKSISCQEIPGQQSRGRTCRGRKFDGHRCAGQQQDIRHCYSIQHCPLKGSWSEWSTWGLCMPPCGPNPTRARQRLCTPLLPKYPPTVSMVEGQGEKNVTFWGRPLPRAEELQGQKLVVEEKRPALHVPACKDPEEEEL
The assay is described as follows: ELISA with homogenates of transfected CHO cells (FIG. 8B).

Assay [4] concerns the target T4, human properdin deletion mutant dTSR6 (human, UniProt P27918 28-377).
T4 construct: CHO cell lysate; also called TSR0-5
Description: ELISA with CHO cell lysates of properdin deletion mutants (FIG. 6). The method, then:
as §2, §1

For assay [5], the target named is T5, human properdin mutant TSR0-5+¾ TSR6 (human, UniProt P27918 28-446).
T5 construct: Expressed in CHO cells, tested as lysate; expression confirmed by Western blot
T5 sequence (P27918 other isoform, or with tags, fused parts or gaps mutant limits assumed): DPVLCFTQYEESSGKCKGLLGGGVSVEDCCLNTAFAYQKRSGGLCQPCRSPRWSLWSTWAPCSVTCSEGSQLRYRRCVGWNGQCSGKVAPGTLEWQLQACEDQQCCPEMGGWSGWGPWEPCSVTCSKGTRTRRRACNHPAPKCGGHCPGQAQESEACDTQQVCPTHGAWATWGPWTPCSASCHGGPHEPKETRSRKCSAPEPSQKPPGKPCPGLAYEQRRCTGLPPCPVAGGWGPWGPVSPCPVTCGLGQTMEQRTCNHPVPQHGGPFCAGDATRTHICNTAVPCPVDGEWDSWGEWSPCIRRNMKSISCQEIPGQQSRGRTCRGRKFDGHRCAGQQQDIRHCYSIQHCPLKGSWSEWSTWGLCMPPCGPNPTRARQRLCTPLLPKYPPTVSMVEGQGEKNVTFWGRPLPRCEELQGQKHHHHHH
Description: sandwich ELISA with CHO cell lysates (FIG. 8A). The method, then:
as §1
Three human properdin mutants comprising TSR0-5+¼ TSR6, TSR0-5+½ TSR6 or TSR0-5+¾ TSR6 were generated by conventional PCR. They were cloned into pCAGGS and expressed in CHO cells as described in Example 5. Protein expression was confirmed by Western analysis using goat anti-human properdin antibody. The blot was stripped and reprobed with a mouse anti-His tag antibody (Qiagen) to confirm that the C-terminal His Tag is present (no C-terminal proteolysis). […] These are cysteine 62 (C62) and cysteine 78 (C78) of TSR6.

Numbering of substitutions follows the chain as printed.

Six molecules from US20140212427A1 (University of Pennsylvania, published 2014) can be followed below.

Sequence of human properdin (P27918 28-469): as the sequence (P27918 28-469 C439A/C455A limits assumed) above, with A412C, A428C counted along it
T4 sequence (P27918 other isoform, or with tags, fused parts or gaps mutant limits assumed): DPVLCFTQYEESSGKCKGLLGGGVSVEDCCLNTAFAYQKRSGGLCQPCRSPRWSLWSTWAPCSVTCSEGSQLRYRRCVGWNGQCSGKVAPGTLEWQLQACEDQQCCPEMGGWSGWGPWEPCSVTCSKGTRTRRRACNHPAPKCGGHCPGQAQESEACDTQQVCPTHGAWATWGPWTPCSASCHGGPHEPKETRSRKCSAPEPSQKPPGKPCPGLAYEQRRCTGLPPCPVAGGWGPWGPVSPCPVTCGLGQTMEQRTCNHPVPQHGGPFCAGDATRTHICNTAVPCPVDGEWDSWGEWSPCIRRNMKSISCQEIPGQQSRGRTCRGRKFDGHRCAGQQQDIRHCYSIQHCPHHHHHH
T1 sequence (P27918 other isoform, or with tags, fused parts or gaps mutant limits assumed): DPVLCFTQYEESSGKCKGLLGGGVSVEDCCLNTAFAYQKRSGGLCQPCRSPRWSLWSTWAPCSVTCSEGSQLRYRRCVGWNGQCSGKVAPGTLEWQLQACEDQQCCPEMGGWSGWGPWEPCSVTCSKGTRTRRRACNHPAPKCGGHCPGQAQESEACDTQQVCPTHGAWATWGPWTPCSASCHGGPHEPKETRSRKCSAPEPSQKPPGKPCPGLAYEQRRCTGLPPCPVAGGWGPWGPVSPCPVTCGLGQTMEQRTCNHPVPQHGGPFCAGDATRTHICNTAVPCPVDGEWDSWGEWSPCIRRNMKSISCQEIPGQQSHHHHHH

B1: humanized 19.1 mAb with heavy chain variable region humanized 19.1 VH-3-66-04 (antibody, human IgG4 S228P, kappa, V domains shown)
VH: EVQLVESGGGLVQPGGSLRLSCAASGFSLTTYGVHWVRQAPGKGLEWVSVIWSGGDTDYNASFISRFTISRDNSKNTLYLQMNSLRAEDTAVYYCARNKDYYTNYDFTMDYWGQGTTVTVSS
VL: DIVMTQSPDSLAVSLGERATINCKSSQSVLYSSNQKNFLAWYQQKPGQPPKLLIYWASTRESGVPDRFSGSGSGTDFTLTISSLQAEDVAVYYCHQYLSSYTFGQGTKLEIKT
As for B1, the “concentration sufficient to inhibit LPS-induced human AP complement activation in 50% NHS (C3 deposition)” value in the assay with human properdin was found to be 10 µg/mL.

B2: mAb 19.1 (antibody, V domains shown)
VH: QVQLKQSGPGLVQPSQSLSISCTVSGFSLTTYGVHWVRQSPGKGLEWLGVIWSGGDTDYNASFISRLRINKDTSKSQVFFKMNSLQADDTAYYCARNKDYYTNYDFTMDYWGQGTSVTVSS
VL: NIMMTQSPSSLAVSAGEKVTMSCKSSQSVLYSSNQKNFLAWYQQKPGQSPKLLIYWASTRESGVPDRFTGSGSGTDFILTINSVQVEDQAVYYCHQYLSSYTFGGGTKLEIK
notes: Mouse hybridoma monoclonal antibody from properdin knockout mice immunised with human properdin; kappa light chain
For B2, in the assay with human properdin, the “LPS-induced AP complement activation in 50% normal human serum (C3 deposition, OD450)” value was determined as 5 µg/mL; the “acidified autologous serum lysis of PNH patient RBCs (Ham's test)” value (“acidified autologous serum lysis” below) is at least 8 µg/ml; the “concentration sufficient to inhibit LPS-induced human AP complement activation in 50% NHS (C3 deposition)” value is 5 µg/mL; the “lysis of human RBCs by 50% human serum with fH 19-20 and anti-DAF mAb” value (from here on “lysis of human RBCs by 50% human serum”) worked out at 5 µg/mL. Moreover, the binding result in assay [1] is listed as “no binding”. Also, the binding result in assay [2] was “no binding”.

B3: mAb 22.1 (antibody, V domains shown)
VH: QVQLKQSGPGLVQPSQSLSITCTVSGFSLTSYGVHWVRQSPGKGLEWLGVIWSGGSTDYNAAFISRLSISKDTSKSQVFFKMNSLQPDDTAIYYCARNKDFYSNYDYTMDYWGQGTSVTVSS
VL: B2 VL with S10F, M21L, I78T, N82S, V86A, Q89L
B3: in the assay with human properdin, the “LPS-induced AP complement activation in 50% normal human serum (C3 deposition, OD450)” value was determined as 5 µg/mL; the “lysis of human RBCs by 50% human serum” value was determined as 5 µg/mL.

B4: chimeric 19.1 mAb (antibody, human IgG4 S228P, kappa, V domains shown)
VH: B2 VH
VL: NIMMTQSPSSLAVSAGEKVTMSCKSSQSVLYSSNQKNFLAWYQQKPGQSPKLLIYWASTRESGVPDRFTGSGSGTDFILTINSVQVEDQAVYYCHQYLSSYTFGGGTKLEIKT
Consider B4, for which, in the assay with human properdin, the “concentration sufficient to inhibit LPS-induced human AP complement activation in 50% NHS (C3 deposition)” value was determined as 10 µg/mL.

B5: humanized 19.1 mAb with heavy chain variable region humanized 19.1 VH-4-59-01 (antibody, human IgG4 S228P, kappa, V domains shown)
VH: QVQLQESGPGLVKPSETLSLTCTVSGFSLTTYGVHWIRQPPGKGLEWIGVIWSGGDTDYNASFISRVTISVDTSKNQFSLKLSSVTAADTAVYYCARNKDYYTNYDFTMDYWGQGTTVTVSS
VL: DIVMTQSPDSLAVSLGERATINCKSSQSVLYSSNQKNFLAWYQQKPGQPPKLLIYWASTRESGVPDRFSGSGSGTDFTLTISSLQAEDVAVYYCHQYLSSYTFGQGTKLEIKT
For B5, in the assay with human properdin, the “acidified autologous serum lysis” value is 20 µg/ml and the “concentration sufficient to inhibit LPS-induced human AP complement activation in 50% NHS (C3 deposition)” value was found to be 10 µg/mL.

B6: mAb 25 (antibody, V domains shown)
VH: QVQLLQSGAEVMKPGASVTLSCKAIGYTFIDYWIEWIKQRPGHGLEWIGEIFPGSGTINHNEKFKDKASFSAHSSSNTAYMQLSRLTSEDSAIYYCAREGLDYWGQGTTLTVSS
VL: QIVLTQSPAIMSASPGERVTMTCSASSSVSYIYWYQQKSGTSPKRWIFDTSTLASGVPTRFSGSGSGTSYSLTISSMETEDAATYYCQQWSRNPFTFGSGTKLEIK
notes: Mouse hybridoma monoclonal antibody; also called anti-properdin mAb 25
With B6, in the assay with human properdin, the “LPS-induced AP complement activation in 50% normal human serum (C3 deposition, OD450)” value was 5 µg/mL. For the same molecule, the “acidified autologous serum lysis” value with human properdin is at least 8 µg/ml. Also, the “lysis of human RBCs by 50% human serum” value with human properdin came out at 5 µg/mL. The binding result in assay [3], in assay [4], in assay [2] and in assay [5] was “no binding” each time.
